± gives the standard deviation.
Assay: protein stability index of a GFP-peptide fusion (GPS, HEK-293T) (PSI 1-6); higher = more stable
Conditions: c terminus: a fixed tail appended
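Also: 24-mer peptide tiles fused after GFP, lentivirally expressed, FACS-sorted into six equal bins by GFP/DsRed ratio, decoded by Illumina sequencing, PSI is the read-weighted mean bin number.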

Row | Sequence | protein stability index (treatment: DMSO) | protein stability index (treatment: MLN4924 1 uM, 8 h)
1 | KKIFAQLDSIIDDRVILSSSTSCL [CRYL1] | 2.35 ± 0.15 | 2.58 ± 0.3
2 | MPIPEDLSTTSGGQQSSKSDRVVA [IKZF1] | 5.44 ± 0.16 | 5.39 ± 0.2
3 | QLSIERGKVLQNKQAEICQLEEKL [CCDC89] | 4.58 ± 0.4 | 4.45 ± 0.37
4 | HFDVLPTEFTLGDDKHYGGFTNKQ [PTPRD] | 4.48 ± 0.16 | 4.47 ± 0.25
5 | MQVLVTAISPGRFPEALDELPLPP [ANKRD9] | 2.17 ± 0.48 | 2.23 ± 0.19
6 | LHSQEDDDSSSESGSGNGSSTLNP [NOL4L] | 5.39 ± 0.2 | 5.48 ± 0.17
7 | TRHEGSFQVPVLCAVMNVVFITIL [CD69] | 2.76 ± 0.55 | 2.63 ± 0.58
8 | STQIRALTEQQEQLRGQLQDLDSR [RASAL3] | 5.14 ± 0.27 | 5.12 ± 0.19
9 | AATKQEGMEGLLGTLVQLLGSDDI [CTNNB1] | 2.63 ± 0.23 | 2.71 ± 0.58
10 | GRKRRQTSMTDFYHSKRRLIFSKR [CDKN1A] | 3.35 ± 0.51 | 4.07 ± 0.38
11 | PAGAEYCSSARHPAWGHCFYRLYQ [SCNN1D] | 2.08 ± 0.38 | 2.68 ± 0.35
12 | SAERYNPRTNQWSPVVAMTSRRSG [KLHL20] | 4.22 ± 0.061 | 4.43 ± 0.16
13 | RRMAAEATEWQKAGAPPPSGSAVS [SRPK2] | 4.59 ± 0.42 | 4.68 ± 0.29
14 | LHSLDDFYIGKYFGGVLEYFMIQA [RHOBTB3] | 2.78 ± 0.37 | 2.8 ± 0.63
15 | ITHSTVGSKGEKDLGASSLHVNGE [EHMT1] | 4.9 ± 0.2 | 5.03 ± 0.24
16 | TKLHDIDGVPHLILIASRDIAAGE [KMT5A] | 2.36 ± 0.33 | 2.33 ± 0.25
17 | YLAMLERFQDGDNILEKEVLPPIH [FEM1B] | 2.73 ± 0.19 | 2.93 ± 0.24
18 | IPKVELQISIYGVKILEPKTKEVQ [GULP1] | 2.46 ± 0.51 | 1.98 ± 0.23
19 | NAILQLVKKYKSMKLEKEEFVTLK [ESRRG] | 2.24 ± 0.37 | 2.29 ± 0.12

Row | Sequence | protein stability index (treatment: DMSO) | protein stability index (treatment: MLN4924 1 uM, 8 h)
20 | GLQNCVYPWDENHCKEKRKTSLLD [NETO1] | 3.24 ± 0.25 | 3.52 ± 0.28
21 | LKLMDRHKKDCAREKPFKCQECGK [ZNF75A] | 3.74 ± 0.37 | 3.95 ± 0.28
22 | VKEELSQKFDTLYAILDEKKSELL [TRIM63] | 3.6 ± 0.41 | 3.58 ± 0.17
23 | SASEILYSAPPGDPLSTNYSLAPN [NFE2L1] | 4.16 ± 0.29 | 4.12 ± 0.28
24 | RDLIPPHVNFSHLTTKDYMEMYNV [SLC6A17] | 3.04 ± 0.28 | 3.23 ± 0.17
25 | VFSFDLHEPLSKERVEAFSDGVYA [TMEM175] | 3.1 ± 0.24 | 3.24 ± 0.28
26 | YLFWEFATDNYDIGFGVYFEWTDS [ACBD3] | 3.14 ± 0.85 | 1.93 ± 0.72
27 | DCILRDTSEDLRLQCDAVNLAFGR [TEKT4] | 3.4 ± 0.13 | 3.48 ± 0.19
28 | ALGNLVEGMDFHRFYFENLLAKNS [CAMK2B] | 2.19 ± 0.24 | 2.35 ± 0.079
29 | MSEMAELSELYEESSDLQMDVMPG [EID1] | 5.43 ± 0.088 | 5.25 ± 0.32
30 | SSPAGLSREYKLVMLGAGGVGKSA [RIT1] | 3.17 ± 0.62 | 2.96 ± 0.22
31 | RAYLFNSVVNVGCGPAEERVLLTG [YPEL3] | 2.72 ± 0.56 | 2.87 ± 0.71
32 | FRRGPAPQDQAGPGGAPRVASRNL [CLPTM1] | 4.63 ± 0.17 | 4.25 ± 0.3
33 | NVLKSYIGLGHIYSGTFALIGAAA [CLCN6] | 3.63 ± 0.91 | 3.04 ± 0.32
34 | PRIEASKVLLCHGELRSKSGHKLY [NET1] | 2.64 ± 0.46 | 2.81 ± 0.34
35 | QGQAKTPDSMFLAMLAVVSCASIG [CDK11A] | 3.36 ± 0.59 | 3.11 ± 0.63
36 | PSRVHASEVESAVWYVKKFGRYLE [FBXO39] | 2.42 ± 0.16 | 2.27 ± 0.5
37 | TASDSESRAESAPLPVSADDTPEV [CDS2] | 5.48 ± 0.45 | 5.36 ± 0.38
38 | PAIIFEDANLDECIPATVRSSFAN [ALDH8A1] | 3.69 ± 0.15 | 3.72 ± 0.2

Row | Sequence | protein stability index (treatment: DMSO) | protein stability index (treatment: MLN4924 1 uM, 8 h)
39 | VVEEILELHIHRLRYLSSIWNILD [PKD2L1] | 3.29 ± 0.65 | 3.04 ± 0.3
40 | MDATNAFKKTAYELLDEKLLARGT [FEM1A] | 3.8 ± 0.23 | 3.85 ± 0.25
41 | LKLLNVLEEYITDEQKEEEEEEGE [FAM9B] | 4.94 ± 0.18 | 4.93 ± 0.29
42 | GILTLAMIAFFFIIIYLGPMVLMI [CDS2] | 2.7 ± 0.57 | 2.48 ± 0.35
43 | SLSYTVLIVGRIAIGVSISLSSIA [SLC2A12] | 3.02 ± 0.43 | 3.37 ± 0.23
44 | SFVLKNFPALLSTGEFLKLPFERL [KLHL13] | 1.94 ± 0.42 | 2.07 ± 0.42
45 | RRRRIIINVGGIKYSLPWTTLDEF [KCNG1] | 2.48 ± 0.44 | 2.46 ± 0.59
46 | RYSTNLSNHVDDFTTFRGTELSFL [EDNRA] | 2.58 ± 0.17 | 2.54 ± 0.21
47 | AARLLRALSSFREESRFCDAHLVL [GAN] | 2.41 ± 0.65 | 2.02 ± 0.27
48 | MYSSSCETTRNTTGIEESTDGMIL [LARP4] | 4.33 ± 0.24 | 4.48 ± 0.23
49 | REPALDGGFQMHYEKTPFDQLAFI [EID1] | 2.65 ± 0.33 | 2.43 ± 0.28
50 | AYPLELQGQPDPAPRPGPPAGTPP [MOSPD3] | 5.14 ± 0.23 | 5.01 ± 0.14
51 | TYQVHDYLRSKLCSLYENDCIFDK [PPP2R2C] | 2.22 ± 0.26 | 2.32 ± 0.48
52 | LIGLISDRLRRNWPPSFLSEFRAL [SPNS1] | 2.19 ± 0.35 | 2.1 ± 0.2
53 | RLVESTSLRKAIETVYAAYLPKNT [MLH1] | 2.2 ± 0.27 | –
54 | HKACEVAPLQSVFQGQKTELNNCI [TRIM63] | 3.78 ± 0.12 | 3.67 ± 0.41
55 | RVLSPLHRGPSGHTEASAQRSHMG | 4.1 ± 0.063 | 4.19 ± 0.16
56 | PPTPGRPSLGPALSTGPRGLCAMP [VENTX] | 3.86 ± 0.37 | 3.73 ± 0.26
57 | FLPDLLIFQMVIICLMCVHSLERA [SMG5] | 3.28 ± 0.47 | 2.59 ± 0.5

Reference: the supplement of paper PMC10567573
